Set-up: species or system women
Settings: in vivo
Experimental: Elevated levels of calprotectin in BV and in L iners-dominated vaginal microbiomes sequester manganese and zinc, preventing growth of L crispatus its maintenance of a healthy vaginal microbiome. […] Six women each received 3 doses of formulation Z2 separated by 48 hours. Vaginal fluid swabs were collected at t=0, 2, 4, 8, 12, 18, 24, 30, 36, and 42 hours post dose and vaginal fluid concentrations of lactoferrin and mannitol were determined. Average concentrations for the combined 18 dose administrations were obtained based on calculation of Area Under Curve for the locally estimated scatterplot smoothing (Loess) profile of lactoferrin and mannitol concentrations assuming 6 mL volume of distribution. The average concentration of lactoferrin was 33 mg/mL and the average concentrations of mannitol was 20 mg/mL. Average concentrations of both substances correspond to 0.1 fraction or 10% of the administered dose, 300 mg lactoferrin and 195 mg mannitol per Z2 tablet respectively. The 0.1 factor was used to estimate the expected average elemental Mn concentration based on the initial dose per tablet.

B1: lactoferrin (protein, UniProt P24627 20-708, looked up)
Lactotransferrin: APRKNVRWCTISQPEWFKCRRWQWRMKKLGAPSITCVRRAFALECIRAIAEKKADAVTLDGGMVFEAGRDPYKLRPVAAEIYGTKESPQTHYYAVAVVKKGSNFQLDQLQGRKSCHTGLGRSAGWIIPMGILRPYLSWTESLEPLQGAVAKFFSASCVPCIDRQAYPNLCQLCKGEGENQCACSSREPYFGYSGAFKCLQDGAGDVAFVKETTVFENLPEKADRDQYELLCLNNSRAPVDAFKECHLAQVPSHAVVARSVDGKEDLIWKLLSKAQEKFGKNKSRSFQLFGSPPGQRDLLFKDSALGFLRIPSKVDSALYLGSRYLTTLKNLRETAEEVKARYTRVVWCAVGPEEQKKCQQWSQQSGQNVTCATASTTDDCIVLVLKGEADALNLDGGYIYTAGKCGLVPVLAENRKSSKHSSLDCVLRPTEGYLAVAVVKKANEGLTWNSLKDKKSCHTAVDRTAGWNIPMGLIVNQTGSCAFDEFFSQSCAPGADPKSRLCALCAGDDQGLDKCVPNSKEKYYGYTGAFRCLAEDVGDVAFVKNDTVWENTNGESTADWAKNLNREDFRLLCLDGTRKPVTEAQSCHLAVAPNHAVVSRSDRAAHVKQVLLHQQALFGKNGKNCPDKFCLFKSETKNLLFNDNTECLAKLGGRPTYEEYLGTEYVTAIANLKKCSTSPLLEACAFLTR
average concentration as fraction of the administered dose: 10%
